T1: EsCas13d, nuclease-dead (Eubacterium siraeum, UniProt B0MS50, R295A;H300A;R849A;H854A)
T1 sequence: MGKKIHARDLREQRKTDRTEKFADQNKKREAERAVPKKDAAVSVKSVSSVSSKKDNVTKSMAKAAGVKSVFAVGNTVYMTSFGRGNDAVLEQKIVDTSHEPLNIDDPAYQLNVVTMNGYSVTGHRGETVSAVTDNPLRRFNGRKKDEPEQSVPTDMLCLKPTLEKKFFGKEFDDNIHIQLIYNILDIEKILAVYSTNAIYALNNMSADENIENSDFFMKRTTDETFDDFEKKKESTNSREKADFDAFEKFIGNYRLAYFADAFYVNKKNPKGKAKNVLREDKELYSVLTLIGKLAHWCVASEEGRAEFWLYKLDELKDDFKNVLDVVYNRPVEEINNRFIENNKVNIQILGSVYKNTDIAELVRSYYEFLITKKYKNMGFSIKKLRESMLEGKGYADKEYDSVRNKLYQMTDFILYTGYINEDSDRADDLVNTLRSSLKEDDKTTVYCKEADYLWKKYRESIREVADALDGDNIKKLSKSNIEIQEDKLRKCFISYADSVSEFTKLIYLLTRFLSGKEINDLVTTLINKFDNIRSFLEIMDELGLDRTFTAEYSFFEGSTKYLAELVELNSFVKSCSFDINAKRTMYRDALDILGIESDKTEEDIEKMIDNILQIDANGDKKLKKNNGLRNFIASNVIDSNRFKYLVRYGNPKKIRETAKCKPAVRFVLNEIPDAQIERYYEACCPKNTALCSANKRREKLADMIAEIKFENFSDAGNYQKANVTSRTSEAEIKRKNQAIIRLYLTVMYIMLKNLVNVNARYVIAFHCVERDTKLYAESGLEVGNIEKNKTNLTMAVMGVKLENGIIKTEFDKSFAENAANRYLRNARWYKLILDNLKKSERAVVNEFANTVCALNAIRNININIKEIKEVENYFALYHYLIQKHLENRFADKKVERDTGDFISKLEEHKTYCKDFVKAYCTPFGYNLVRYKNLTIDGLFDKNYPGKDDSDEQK

B1: target 1 MT 5'PFS CAA 3'PFS AAU (mixed)
RNA 1: CACCCGUGCAAAAAUGCAGGGGUCUAAAACUGAGCGGAUAACCUCUCUAUGG
RNA 2: GGGAAUGGAUCCACAUCUACGAAUUCCAACCAUAGAGAGGUUAUCCGCUCAAAUAGAUCGGAAGAGCACACGU
B2: target 1 MT 5'PFS CUA 3'PFS ACU (mixed)
RNA 1: CACCCGUGCAAAAAUGCAGGGGUCUAAAACUGAGCGGAUAACCUCUCUAUGG
RNA 2: GGGAAUGGAUCCACAUCUACGAAUUCCUACCAUAGAGAGGUUAUCCGCUCAACUAGAUCGGAAGAGCACACGU
B3: target 1 MT 5'PFS CUA 3'PFS ACC (mixed)
RNA 1: CACCCGUGCAAAAAUGCAGGGGUCUAAAACUGAGCGGAUAACCUCUCUAUGG
RNA 2: GGGAAUGGAUCCACAUCUACGAAUUCCUACCAUAGAGAGGUUAUCCGCUCAACCAGAUCGGAAGAGCACACGU
B4: target 1 MT 5'PFS UCA 3'PFS CGG (mixed)
RNA 1: CACCCGUGCAAAAAUGCAGGGGUCUAAAACUGAGCGGAUAACCUCUCUAUGG
RNA 2: GGGAAUGGAUCCACAUCUACGAAUUCUCACCAUAGAGAGGUUAUCCGCUCACGGAGAUCGGAAGAGCACACGU
B5: target 1 MT 5'PFS UCA 3'PFS CGC (mixed)
RNA 1: CACCCGUGCAAAAAUGCAGGGGUCUAAAACUGAGCGGAUAACCUCUCUAUGG
RNA 2: GGGAAUGGAUCCACAUCUACGAAUUCUCACCAUAGAGAGGUUAUCCGCUCACGCAGAUCGGAAGAGCACACGU
B6: target 1 MT 5'PFS AAA 3'PFS AGA (mixed)
RNA 1: CACCCGUGCAAAAAUGCAGGGGUCUAAAACUGAGCGGAUAACCUCUCUAUGG
RNA 2: GGGAAUGGAUCCACAUCUACGAAUUCAAACCAUAGAGAGGUUAUCCGCUCAAGAAGAUCGGAAGAGCACACGU
B7: target 1 MT 5'PFS CUA 3'PFS ACA (mixed)
RNA 1: CACCCGUGCAAAAAUGCAGGGGUCUAAAACUGAGCGGAUAACCUCUCUAUGG
RNA 2: GGGAAUGGAUCCACAUCUACGAAUUCCUACCAUAGAGAGGUUAUCCGCUCAACAAGAUCGGAAGAGCACACGU
B8: target 1 MT 5'PFS UCA 3'PFS AGA (mixed)
RNA 1: CACCCGUGCAAAAAUGCAGGGGUCUAAAACUGAGCGGAUAACCUCUCUAUGG
RNA 2: GGGAAUGGAUCCACAUCUACGAAUUCUCACCAUAGAGAGGUUAUCCGCUCAAGAAGAUCGGAAGAGCACACGU
B9: target 1 MT 5'PFS CAG 3'PFS AGU (mixed)
RNA 1: CACCCGUGCAAAAAUGCAGGGGUCUAAAACUGAGCGGAUAACCUCUCUAUGG
RNA 2: GGGAAUGGAUCCACAUCUACGAAUUCCAGCCAUAGAGAGGUUAUCCGCUCAAGUAGAUCGGAAGAGCACACGU
B10: target 1 insA 3' of 21,insC 3' of 13 (mixed)
RNA 1: CACCCGUGCAAAAAUGCAGGGGUCUAAAACUGAGCGGAUAACCUCUCUAUGG
RNA 2: GGGAAUGGAUCCACAUCUACGAAUUCGUACCAAUAGAGAGCGUUAUCCGCUCACCGAGAUCGGAAGAGCACACGU
B11: target 1 MT 5'PFS AGC 3'PFS CUU (mixed)
RNA 1: CACCCGUGCAAAAAUGCAGGGGUCUAAAACUGAGCGGAUAACCUCUCUAUGG
RNA 2: GGGAAUGGAUCCACAUCUACGAAUUCAGCCCAUAGAGAGGUUAUCCGCUCACUUAGAUCGGAAGAGCACACGU
B12: target 1 MT 5'PFS UUG 3'PFS UUA (mixed)
RNA 1: CACCCGUGCAAAAAUGCAGGGGUCUAAAACUGAGCGGAUAACCUCUCUAUGG
RNA 2: GGGAAUGGAUCCACAUCUACGAAUUCUUGCCAUAGAGAGGUUAUCCGCUCAUUAAGAUCGGAAGAGCACACGU
B13: target 1 MT 5'PFS AGC 3'PFS CUA (mixed)
RNA 1: CACCCGUGCAAAAAUGCAGGGGUCUAAAACUGAGCGGAUAACCUCUCUAUGG
RNA 2: GGGAAUGGAUCCACAUCUACGAAUUCAGCCCAUAGAGAGGUUAUCCGCUCACUAAGAUCGGAAGAGCACACGU
B14: target 1 MT 5'PFS GUG 3'PFS UUA (mixed)
RNA 1: CACCCGUGCAAAAAUGCAGGGGUCUAAAACUGAGCGGAUAACCUCUCUAUGG
RNA 2: GGGAAUGGAUCCACAUCUACGAAUUCGUGCCAUAGAGAGGUUAUCCGCUCAUUAAGAUCGGAAGAGCACACGU
B15: target 1 MT 5'PFS CAG 3'PFS AGC (mixed)
RNA 1: CACCCGUGCAAAAAUGCAGGGGUCUAAAACUGAGCGGAUAACCUCUCUAUGG
RNA 2: GGGAAUGGAUCCACAUCUACGAAUUCCAGCCAUAGAGAGGUUAUCCGCUCAAGCAGAUCGGAAGAGCACACGU
B16: target 1 MT 5'PFS CUA 3'PFS ACG (mixed)
RNA 1: CACCCGUGCAAAAAUGCAGGGGUCUAAAACUGAGCGGAUAACCUCUCUAUGG
RNA 2: GGGAAUGGAUCCACAUCUACGAAUUCCUACCAUAGAGAGGUUAUCCGCUCAACGAGAUCGGAAGAGCACACGU
B17: target 1 MT 5'PFS CCA 3'PFS AUU (mixed)
RNA 1: CACCCGUGCAAAAAUGCAGGGGUCUAAAACUGAGCGGAUAACCUCUCUAUGG
RNA 2: GGGAAUGGAUCCACAUCUACGAAUUCCCACCAUAGAGAGGUUAUCCGCUCAAUUAGAUCGGAAGAGCACACGU
B18: target 1 insC 3' of 11,insU 3' of 5 (mixed)
RNA 1: CACCCGUGCAAAAAUGCAGGGGUCUAAAACUGAGCGGAUAACCUCUCUAUGG
RNA 2: GGGAAUGGAUCCACAUCUACGAAUUCGUACCAUAGAGAGGUCUAUCCGUCUCACCGAGAUCGGAAGAGCACACGU
B19: target 1 MT 5'PFS UCA 3'PFS AGU (mixed)
RNA 1: CACCCGUGCAAAAAUGCAGGGGUCUAAAACUGAGCGGAUAACCUCUCUAUGG
RNA 2: GGGAAUGGAUCCACAUCUACGAAUUCUCACCAUAGAGAGGUUAUCCGCUCAAGUAGAUCGGAAGAGCACACGU
B20: target 1 MT 5'PFS GUG 3'PFS UUU (mixed)
RNA 1: CACCCGUGCAAAAAUGCAGGGGUCUAAAACUGAGCGGAUAACCUCUCUAUGG
RNA 2: GGGAAUGGAUCCACAUCUACGAAUUCGUGCCAUAGAGAGGUUAUCCGCUCAUUUAGAUCGGAAGAGCACACGU
B21: target 1 MT 5'PFS UCA 3'PFS AGG (mixed)
RNA 1: CACCCGUGCAAAAAUGCAGGGGUCUAAAACUGAGCGGAUAACCUCUCUAUGG
RNA 2: GGGAAUGGAUCCACAUCUACGAAUUCUCACCAUAGAGAGGUUAUCCGCUCAAGGAGAUCGGAAGAGCACACGU
B22: target 1 MT 5'PFS AAC 3'PFS UUG (mixed)
RNA 1: CACCCGUGCAAAAAUGCAGGGGUCUAAAACUGAGCGGAUAACCUCUCUAUGG
RNA 2: GGGAAUGGAUCCACAUCUACGAAUUCAACCCAUAGAGAGGUUAUCCGCUCAUUGAGAUCGGAAGAGCACACGU
B23: target 1 MT 5'PFS GUG 3'PFS GUA (mixed)
RNA 1: CACCCGUGCAAAAAUGCAGGGGUCUAAAACUGAGCGGAUAACCUCUCUAUGG
RNA 2: GGGAAUGGAUCCACAUCUACGAAUUCGUGCCAUAGAGAGGUUAUCCGCUCAGUAAGAUCGGAAGAGCACACGU

The target of the series is T1, EsCas13d, nuclease-dead. Description: crRNA (strand 1, pre-loaded); Mg2+; 40 mM Tris-HCl pH 7.5, 150 mM NaCl, 6 mM MgCl2, 1 mM DTT, 0.1% Tween-20, 0.2 mg/ml BSA; 25 C; 10 min per concentration, then washed. The settings on record: tags: His6-TwinStrep-SUMO cleaved; N-terminal SNAP kept (SNAP-Surface 488); label: 3' end held by stalled T7 RNA polymerase.
The molecule B1 returned a Kd of around 25.5 nM. Then B2, with 4.95 ± 1 nM.

In turn, B3 yielded a Kd of 5 ± 1.85 nM. To B4 belongs 52.5 ± 25 nM. Then B5, with 10.8 ± 3.85 nM; and B6, with 33 ± 12.5 nM. B7: the Kd worked out at 9.65 ± 2.5 nM. Then B8, with 20.5 ± 8.5 nM; and B9, with 57 ± 22.5 nM. For the molecule B10, the Kd came to 32 ± 4 nM. Then B11, with 9.35 ± 3.2 nM; and B12, with 20.1 ± 3.2 nM; and B13, with 13.9 ± 4.8 nM.

B14 showed a Kd of 10.6 ± 0.65 nM. To B15 belongs 20.5 ± 9 nM; to B16, 6.05 ± 1.8 nM; to B17, 2.62 ± 0.595 nM.

As to B18, the Kd was 15 ± 0.8 nM. Then B19, with 24.6 ± 5.5 nM; and B20, with 9.05 ± 0.495 nM. Then B21, with around 100 nM.

On to B22, for which binding was put at a Kd of 15.3 ± 3.3 nM. Then B23, with 12.2 ± 1.6 nM.

As usually defined, the Kd is the constant that tells how readily two partners part at equilibrium.

Values taken from paper PMC10786891, “Massively parallel profiling of RNA-targeting CRISPR-Cas13d”.
